Assay results from patent EP4682169A1.
Substitutions are numbered along the chain they refer to.

B1: 8-hIgG1Fc (Fc fusion, not shown: a dimerising Fc or GST)
chain: QVQLVESGGGLVQPGGSLRLSCAASGSIFGLNFMGWWRQAPGSQRELVAIATSGGSIQYGDSVKGRFTISRDNAKNTVYLQMASLKPEDTAVYYCNVHTYDFLGRDYWGQGTQVTVSL
B2: 1-hIgG1Fc (Fc fusion, not shown: a dimerising Fc or GST)
chain: EVQLVGSGGGLVQPGGSLRLSCAASGSILNLMTTGWYRQAPGKQRDLVATITFGGTTNYADSVKGRFTISRDKSKNTAYLQMDNLKPEDTAVYFCYADVIVGFQDRRVAWDAGTQVTVSS
B3: 10-hIgG1Fc (Fc fusion, not shown: a dimerising Fc or GST)
chain: QVQLAESGGGLVQPGGSLRLSCAASGNILSINYMGWYRQAPGKERELVATITRGGTTNYQGDLKGRFIISGDNTKDTVYLQMNNLQPEDTAVYYCYFRINFGILGGLRDYWGQGTQVTVSS
B4: 2-mIgG2aFc (Fc fusion, not shown: a dimerising Fc or GST)
chain: B3 chain with Q1E, A5V, T56S, D62N
B5: 5-hIgG1Fc (Fc fusion, not shown: a dimerising Fc or GST)
chain: QVQLVESGGGLVQTGGSLRLSCAASDSTFSSYIMGWFRQAPGKEREFVAGITWSGGIKDYADSVKGRFTIARDNAKNTVYLQMNSLKPEDAAIYYCAANAIQLTRRSGDYAYWGQGTQVTVSS

Assays:
[1] = target: human Claudin18.1 expressed on cells (human) (UniProt P56856); test: flow cytometry on 293FT-hClaudin18.1 cells, antibody 10 ug/mL, cells with antibody binding/total cells
[2] = target: human Claudin18.2 expressed on cells (human) (UniProt P56856); test: flow cytometry on 293FT-hClaudin18.2 cells, antibody 10 ug/mL, cells with antibody binding/total cells
[3] = target: human Claudin18.1 expressed on cells (human) (UniProt P56856); test: flow cytometry on 293FT CLDN18.1-Luc cells, APC anti-mouse IgG Fc

| Binder | binding percentage [1] [%] | binding percentage [2] [%] | EC50 [3] [nM] |
| --- | --- | --- | --- |
| B1 | 2.26 | 93.9 |  |
| B2 | 2.75 | 88.9 |  |
| B3 | 2.06 | 96.1 |  |
| B4 |  |  | 133 |
| B5 | 2.06 | 96 |  |
